The values that follow come from patent US20240151714A1 (AJOU UNIVERSITY INDUSTRY ACADEMIC COOPERATION FOUNDATION, published 2024).

For assay [1], the target named is thrombin (ab62452; Abcam) (human, UniProt P00734 328-622). The experiment in a line: PPR-based homogeneous assay, specificity test (trastuzumab-DNA1 with pertuzumab-DNA2). The protocol: (§1) In a homogeneous assay to detect the target substance, samples were mixed with four conjugates (TEVP-first DNA′, BLZ-second DNA′, first binder-first DNA agent, second binder-second DNA) and […] CENTA™ (EMD Millipore, USA) in a reaction buffer (137 mM NaCl, 2.7 mM KCl, 10 mM Na₂HPO₄, 2 mM KH₂PO₄, 40 mM MgCl₂, 10 mM DTT, 0.5% (w/v) BSA, and pH 7.4). Hydrolysis of CENTA™ by β-lactamase was monitored by measuring absorbance (A₄₀₅) at 405 nm using a plate reader (synergy HT multi-detection reader; BioTek Instruments, USA) at 37° C. for 1 hour. The absorbance signal (ΔAbs=A₄₀₅ at 60 min−A₄₀₅ at 1 min) was plotted as a function of the concentration of the target substance. All experiments were performed at least three times and the limit of detection (LOD) was calculated as the sum of the mean ΔAbs of the blank and three times the standard deviation. In the competitive immunoassay for small molecule detection, an antibody against the target was further contained in the reaction solution. The following proteins were used as targets: HER2 (extracellular domain; 10004-H₀₈H; Sino Biological, China), cTnI protein (ab207624; Abcam, United Kingdom), thrombin (ab62452; Abcam), digoxigenin (D9026; Sigma, USA), digoxigenin polyclonal antibody (PA1-85378; Thermo Fisher Scientific, USA) and hCG monoclonal antibody (MA5-14680; Thermo Fisher Scientific).

The target in assay [2] is T1, cTnI protein (ab207624; Abcam) (UniProt P19429 1-210, limits assumed).
T1 construct: also called cardiac troponin I
Described as above. As to the method:
as §1

T1 sequence (P19429 whole entry): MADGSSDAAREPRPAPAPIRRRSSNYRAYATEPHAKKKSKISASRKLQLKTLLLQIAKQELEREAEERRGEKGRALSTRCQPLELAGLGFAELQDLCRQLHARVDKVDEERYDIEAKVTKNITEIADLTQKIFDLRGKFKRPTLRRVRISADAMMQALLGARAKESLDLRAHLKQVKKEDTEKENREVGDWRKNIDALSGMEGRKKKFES

B1: pertuzumab-second DNA conjugate (antibody, V domains shown)
VH: EVQLVESGGGLVQPGGSLRLSCAASGFTFTDYTMDWVRQAPGKGLEWVADVNPNSGGSIYNQRFKGRFTLSVDRSKNTLYLQMNSLRAEDTAVYYCARNLGPSFYFDYWGQGTLVTVSS
VL: DIQMTQSPSSLSASVGDRVTITCKASQDVSIGVAWYQQKPGKAPKLLIYSASYRYTGVPSRFSGSGSGTDFTLTISSLQPEDFATYYCQQYYIYPYTFGQGTKVEIKR
modifications: amine groups conjugated to amine-modified second DNA (SEQ ID NO: 2) via a bis-NHS ester linker; heterogeneous product, sites not stated
notes: IgG made in HEK293F cells and conjugated to ssDNA; also called pertuzumab-DNA2; P-D2
For the molecule B1, the binding result in assay [1] and in assay [2] was “no binding (tested: 10 nM)” in each case.
